Assay results published in patent US20240252628A1.

Molecular target: GDF8, O14793
Assay: SPR (Biacore), anti-Fc capture of receptor; very low signal
Conditions: remark: other sources report otherwise

Chain of GDF8, O14793 (O14793 267-375 limits assumed): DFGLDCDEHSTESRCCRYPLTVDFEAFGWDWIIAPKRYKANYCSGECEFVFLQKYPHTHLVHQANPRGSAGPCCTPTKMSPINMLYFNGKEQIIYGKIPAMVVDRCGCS

B1: ALK4-Fc homodimer, P36896 24-126 (Fc fusion, not shown: a dimerising Fc or GST)
chain: SGPRGVQALLCACTSCLQANYTCETDGACMVSIFNLDGMEHHVRTCIPKVELVPAGKPFYCLSSEDLRNTHCCYTDYCNRIDLRVPSGHLKEPEHPSMWGPVE
Kd: 15 nM
koff: 0.0019 s⁻¹
kon: 130000 M⁻¹ s⁻¹
